This is an account of results in publication PMC13214397, “De novo biosynthesis of alpinetin enhanced by directed evolution of 5-O-methyltransferase” (Microbial Cell Factories, 2026).

Substrate in data set [1]: O=C1C[C@@H](c2ccccc2)Oc2cc(O)cc(O)c21
The experiment in a line: initial rates of alpinetin formation by HPLC, Michaelis-Menten fit. The conditions noted are these: 2 mM SAM (fixed), 2 mM Mg2+, 50 uM enzyme, Tris-HCl pH 7.5, 37 °C, apparent initial velocities. In kind it is biochemical, Streptomyces avermitilis. An excerpt:
initial rates of alpinetin formation by HPLC, Michaelis-Menten fit on StrAOMT | we performed steady-state kinetic assays for StrAOMT wild-type and StrAOMT I41L/R171W/K212R

Substrate in data set [2]: O=C1C[C@@H](c2ccccc2)Oc2cc(O)cc(O)c21
The data set is described as above. In kind it is biochemical, Streptomyces avermitilis. To be noted: 2 mM SAM (fixed), 2 mM Mg2+, 50 uM enzyme, Tris-HCl pH 7.5, 37 °C, apparent initial velocities. From the text:
initial rates of alpinetin formation by HPLC, Michaelis-Menten fit on StrAOMT | KM of StrAOMT wild type is twice that of the StrAOMT triple mutant
The source holds these as a separate data set.

B1: StrAOMT (Streptomyces avermitilis MA-4680 = NBRC 14893) (protein)
chain: MSESQQLWDDVDDYFTTLLAPEDEALTAALRDSDAAGLPHINVAPNQGKLLQLLAEIQGARRILEIGTLGGYSTIWLGRALPRDGRLISFEYDAKHAEVARRNLARAGLDGISEVRVGPALESLPKLADERPEPFDLVFIDADKVNNPHYVEWALKLTRPGSLIVVDNVVRGGGVTDAGSTDPSVRGTRSALELIAEHPKLSGTAVQTVGSKGYDGFALARVLP
notes: recombinant from pET21b in E. coli BL21(DE3), codon-optimized
For orientation: Km means the concentration of substrate that gives half-maximal velocity. The term kcat denotes the number of substrate molecules converted per active site and unit of time at saturation. Consider B1, for which, in data set [1], the Km was 313.2 µM and the kcat was determined as 2.83e-05 s⁻¹.

B2: StrAOMT (Streptomyces avermitilis MA-4680 = NBRC 14893; I41L/K212R/R171W) (protein)
chain: MSESQQLWDDVDDYFTTLLAPEDEALTAALRDSDAAGLPHLNVAPNQGKLLQLLAEIQGARRILEIGTLGGYSTIWLGRALPRDGRLISFEYDAKHAEVARRNLARAGLDGISEVRVGPALESLPKLADERPEPFDLVFIDADKVNNPHYVEWALKLTRPGSLIVVDNVVWGGGVTDAGSTDPSVRGTRSALELIAEHPKLSGTAVQTVGSRGYDGFALARVLP
notes: as for B1
On to B2, for which, in data set [2], the Km stood at 156.4 µM and the kcat was determined as 9.33e-05 s⁻¹.
